These results are taken from patent EP0662093B1.

Experiment [1] deals with native HIV-1MN gp120 (HIV-1 strain MN) (UniProt P05877). The experiment is described as follows: radioimmunoassay of hybridoma supernatant on HIV-1MN-infected against uninfected H9 cells.
Experiment [2] has the same target. The experiment is described as follows: ELISA of hybridoma supernatant on membranes of HIV-1MN-infected against uninfected H9 cells. A general note: ELISA stands for enzyme-linked immunosorbent assay.
Experiment [3] concerns the target peptide aa 302-316 of HIV-1MN gp120 (HIV-1 strain MN). The experiment is described as follows: ELISA on coated peptide (250 ng/well); 4.75ng antibody.
Experiment [4] has as its target peptide aa 322-336 of HIV-1MN gp120 (HIV-1 strain MN). The description is as above.
The target in experiment [5] is peptide aa 312-326 of HIV-1MN gp120 (HIV-1 strain MN). Described as above.
Experiment [6] deals with HIV-1 RF gp120 (HIV-1 strain RF) (UniProt P04579). The experiment is described as follows: cell-based or functional assay.
UniProt P04579, sequence (P04579 32-519 limits assumed): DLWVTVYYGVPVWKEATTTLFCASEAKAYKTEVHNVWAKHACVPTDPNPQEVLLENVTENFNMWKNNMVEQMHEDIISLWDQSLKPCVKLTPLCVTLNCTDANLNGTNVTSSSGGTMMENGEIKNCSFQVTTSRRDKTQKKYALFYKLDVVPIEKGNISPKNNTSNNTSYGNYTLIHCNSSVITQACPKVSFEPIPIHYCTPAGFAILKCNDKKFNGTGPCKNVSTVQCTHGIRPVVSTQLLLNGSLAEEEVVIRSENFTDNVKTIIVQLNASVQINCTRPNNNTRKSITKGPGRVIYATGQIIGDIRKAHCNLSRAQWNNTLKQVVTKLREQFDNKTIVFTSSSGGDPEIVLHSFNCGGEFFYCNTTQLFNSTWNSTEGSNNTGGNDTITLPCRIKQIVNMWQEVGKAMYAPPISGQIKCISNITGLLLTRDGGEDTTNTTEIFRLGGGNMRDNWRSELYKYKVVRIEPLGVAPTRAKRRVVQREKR
For experiment [7], the target named is native HIV-1MN gp120 (HIV-1 strain MN) (UniProt P05877). The experiment is described as follows: cell-based or functional assay.
Experiment [8] concerns the target native HIV-1IIIB gp120 (HIV-1 strain IIIB) (UniProt P04578). Description: cell-based or functional assay.
Experiment [9] deals with peptide aa 302-316 of HIV-1MN gp120 (HIV-1 strain MN). The experiment is described as follows: ELISA on coated peptide (250 ng/well); 19.0ng antibody.
In experiment [10] the target is peptide aa 322-336 of HIV-1MN gp120 (HIV-1 strain MN). Described as above.
Experiment [11] addresses peptide aa 312-326 of HIV-1MN gp120 (HIV-1 strain MN). The description is as above.
In experiment [12] the target is peptide aa 302-316 of HIV-1MN gp120 (HIV-1 strain MN). The experiment is described as follows: ELISA on coated peptide (250 ng/well); 9.50ng antibody.
The target of experiment [13] is peptide aa 322-336 of HIV-1MN gp120 (HIV-1 strain MN). The experiment is described as above.
In experiment [14] the target is peptide aa 312-326 of HIV-1MN gp120 (HIV-1 strain MN). The description is as above.
Experiment [15] has as its target peptide aa 302-316 of HIV-1MN gp120 (HIV-1 strain MN). Description: ELISA on coated peptide (250 ng/well); 500ng MIgG.
The target of experiment [16] is peptide aa 322-336 of HIV-1MN gp120 (HIV-1 strain MN). Description: ELISA on coated peptide (250 ng/well); 500ng MIgG.
Experiment [17] deals with peptide aa 312-326 of HIV-1MN gp120 (HIV-1 strain MN). The experiment is described as follows: ELISA on coated peptide (250 ng/well); 500ng MIgG.

As for monoclonal antibody NM-01, in experiment [1], the Ratio cpm inf/cpm uninf (RIA) was 9.81. In addition, in experiment [2], the ratio infected/uninfected (ELISA, Run 1) came to 5.76. Further, the Optical density at 650nm in [3] came to 0.024 OD 650nm. In experiment [4], the Optical density at 650nm came out at 0.03 OD 650nm. The substance also showed an Optical density at 650nm in experiment [5] of 0.781 OD 650nm. In experiment [6], this substance yielded an ID50, inhibition of live RF virus, RT assay of 0.05 µg/mL; an ID50, inhibition of syncytium formation by RF-infected cells of 4 µg/mL; a percent inhibition of syncytium formation by RF-infected cells at 25 µg antibody of 59%. For the same substance, in experiment [7], the 50% inhibition of viral infectivity (ID50), live MN virus, RT assay is < 1 µg/mL; the 50% inhibition of viral infectivity (ID50), live MN virus, RT assay (run with F58/H3 and P4/D10) is < 1 µg/mL; the ID50, inhibition of syncytium formation by MN-infected H9 cells with C8166 cells came out at 2 µg/mL; the ID50, neutralization of live MN isolate, MT-2 assay came to 2 µg/mL. In experiment [7], this substance returned a percent inhibition of syncytium formation by MN-infected cells at 25 µg antibody of 85%. For the same substance, in [8], the ID50, inhibition of syncytium formation by IIIB-infected H9 cells with C8166 cells turned out to be 3 µg/mL; the ID50, neutralization of live IIIB isolate, MT-2 assay is 0.1 µg/mL; the ID50, neutralization of live IIIB virus, RT assay came to 0.1 µg/mL; the ID50, neutralization of live IIIB virus, RT assay (run with F58/H3 and P4/D10) came to 0.1 µg/mL. In addition, the percent inhibition of syncytium formation by IIIB-infected cells at 25 µg antibody in experiment [8] amounted to 85%. Besides, the Optical density at 650nm in experiment [9] amounted to 0.024 OD 650nm. The same substance displayed an Optical density at 650nm in [10] of 0.03 OD 650nm. For the same substance, the Optical density at 650nm in experiment [11] is 1.14 OD 650nm. In experiment [12], the Optical density at 650nm was 0.024 OD 650nm. For the same substance, in experiment [13], the Optical density at 650nm stood at 0.028 OD 650nm. The same substance had an Optical density at 650nm in experiment [14] of 0.827 OD 650nm.

For mouse IgG (antibody), the Optical density at 650nm worked out at 0.049 OD 650nm in experiment [15], 0.042 OD 650nm in experiment [16] and 0.043 OD 650nm in experiment [17].
